Data: US20260070987A1

B1: equine IgG4 M428E (antibody, part only; not given: variable domains, not shown: another chain or arm of the molecule)
constant: ASTTAPKVFPLASHSAATSGSTVALGCLVSSYFPEPVTVSWNSGALTSGVHTFPSVLQSSGLYSLSSMVTVPASSLKSQTYICNVAHPASSTKVDKKIVIKECNGGCPAECLQVGPSVFIFPPKPKDVLMISRTPTVTCVVVDVGHDFPDVQFNWYVDGVETHTATTEPKQEQFNSTYRVVSVLPIQHKDWLSGKEFKCKVNNKALPAPVERTISKPTGQPREPQVYVLAPHRDELSKNKVSVTCLVKDFYPTDIDIEWKSNGQPEPETKYSTTPAQLDSDGSYFLYSKLTVETNRWQQGTTFTCAVEHEALHNHYTEKSVSKSPGK
B2: equine IgG4 M428I (antibody, part only; not given: variable domains, not shown: another chain or arm of the molecule)
constant: ASTTAPKVFPLASHSAATSGSTVALGCLVSSYFPEPVTVSWNSGALTSGVHTFPSVLQSSGLYSLSSMVTVPASSLKSQTYICNVAHPASSTKVDKKIVIKECNGGCPAECLQVGPSVFIFPPKPKDVLMISRTPTVTCVVVDVGHDFPDVQFNWYVDGVETHTATTEPKQEQFNSTYRVVSVLPIQHKDWLSGKEFKCKVNNKALPAPVERTISKPTGQPREPQVYVLAPHRDELSKNKVSVTCLVKDFYPTDIDIEWKSNGQPEPETKYSTTPAQLDSDGSYFLYSKLTVETNRWQQGTTFTCAVIHEALHNHYTEKSVSKSPGK
B3: equine IgG4 M428H (antibody, part only; not given: variable domains, not shown: another chain or arm of the molecule)
constant: ASTTAPKVFPLASHSAATSGSTVALGCLVSSYFPEPVTVSWNSGALTSGVHTFPSVLQSSGLYSLSSMVTVPASSLKSQTYICNVAHPASSTKVDKKIVIKECNGGCPAECLQVGPSVFIFPPKPKDVLMISRTPTVTCVVVDVGHDFPDVQFNWYVDGVETHTATTEPKQEQFNSTYRVVSVLPIQHKDWLSGKEFKCKVNNKALPAPVERTISKPTGQPREPQVYVLAPHRDELSKNKVSVTCLVKDFYPTDIDIEWKSNGQPEPETKYSTTPAQLDSDGSYFLYSKLTVETNRWQQGTTFTCAVHHEALHNHYTEKSVSKSPGK
B4: equine IgG4 M428V (antibody, part only; not given: Variable domains, not shown: another chain or arm of the molecule)
constant: ASTTAPKVFPLASHSAATSGSTVALGCLVSSYFPEPVTVSWNSGALTSGVHTFPSVLQSSGLYSLSSMVTVPASSLKSQTYICNVAHPASSTKVDKKIVIKECNGGCPAECLQVGPSVFIFPPKPKDVLMISRTPTVTCVVVDVGHDFPDVQFNWYVDGVETHTATTEPKQEQFNSTYRVVSVLPIQHKDWLSGKEFKCKVNNKALPAPVERTISKPTGQPREPQVYVLAPHRDELSKNKVSVTCLVKDFYPTDIDIEWKSNGQPEPETKYSTTPAQLDSDGSYFLYSKLTVETNRWQQGTTFTCAVVHEALHNHYTEKSVSKSPGK
B5: equine IgG4 M428T (antibody, part only; not given: variable domains, not shown: another chain or arm of the molecule)
constant: ASTTAPKVFPLASHSAATSGSTVALGCLVSSYFPEPVTVSWNSGALTSGVHTFPSVLQSSGLYSLSSMVTVPASSLKSQTYICNVAHPASSTKVDKKIVIKECNGGCPAECLQVGPSVFIFPPKPKDVLMISRTPTVTCVVVDVGHDFPDVQFNWYVDGVETHTATTEPKQEQFNSTYRVVSVLPIQHKDWLSGKEFKCKVNNKALPAPVERTISKPTGQPREPQVYVLAPHRDELSKNKVSVTCLVKDFYPTDIDIEWKSNGQPEPETKYSTTPAQLDSDGSYFLYSKLTVETNRWQQGTTFTCAVTHEALHNHYTEKSVSKSPGK
B6: equine IgG4 M428Q (antibody, part only; not given: variable domains, not shown: another chain or arm of the molecule)
constant: ASTTAPKVFPLASHSAATSGSTVALGCLVSSYFPEPVTVSWNSGALTSGVHTFPSVLQSSGLYSLSSMVTVPASSLKSQTYICNVAHPASSTKVDKKIVIKECNGGCPAECLQVGPSVFIFPPKPKDVLMISRTPTVTCVVVDVGHDFPDVQFNWYVDGVETHTATTEPKQEQFNSTYRVVSVLPIQHKDWLSGKEFKCKVNNKALPAPVERTISKPTGQPREPQVYVLAPHRDELSKNKVSVTCLVKDFYPTDIDIEWKSNGQPEPETKYSTTPAQLDSDGSYFLYSKLTVETNRWQQGTTFTCAVQHEALHNHYTEKSVSKSPGK
B7: equine IgG4 M428P (antibody, part only; not given: variable domains, not shown: another chain or arm of the molecule)
constant: ASTTAPKVFPLASHSAATSGSTVALGCLVSSYFPEPVTVSWNSGALTSGVHTFPSVLQSSGLYSLSSMVTVPASSLKSQTYICNVAHPASSTKVDKKIVIKECNGGCPAECLQVGPSVFIFPPKPKDVLMISRTPTVTCVVVDVGHDFPDVQFNWYVDGVETHTATTEPKQEQFNSTYRVVSVLPIQHKDWLSGKEFKCKVNNKALPAPVERTISKPTGQPREPQVYVLAPHRDELSKNKVSVTCLVKDFYPTDIDIEWKSNGQPEPETKYSTTPAQLDSDGSYFLYSKLTVETNRWQQGTTFTCAVPHEALHNHYTEKSVSKSPGK
B8: equine IgG4 M428N (antibody, part only; not given: variable domains, not shown: another chain or arm of the molecule)
constant: ASTTAPKVFPLASHSAATSGSTVALGCLVSSYFPEPVTVSWNSGALTSGVHTFPSVLQSSGLYSLSSMVTVPASSLKSQTYICNVAHPASSTKVDKKIVIKECNGGCPAECLQVGPSVFIFPPKPKDVLMISRTPTVTCVVVDVGHDFPDVQFNWYVDGVETHTATTEPKQEQFNSTYRVVSVLPIQHKDWLSGKEFKCKVNNKALPAPVERTISKPTGQPREPQVYVLAPHRDELSKNKVSVTCLVKDFYPTDIDIEWKSNGQPEPETKYSTTPAQLDSDGSYFLYSKLTVETNRWQQGTTFTCAVNHEALHNHYTEKSVSKSPGK
B9: equine IgG4 M428W (antibody, part only; not given: variable domains, not shown: another chain or arm of the molecule)
constant: ASTTAPKVFPLASHSAATSGSTVALGCLVSSYFPEPVTVSWNSGALTSGVHTFPSVLQSSGLYSLSSMVTVPASSLKSQTYICNVAHPASSTKVDKKIVIKECNGGCPAECLQVGPSVFIFPPKPKDVLMISRTPTVTCVVVDVGHDFPDVQFNWYVDGVETHTATTEPKQEQFNSTYRVVSVLPIQHKDWLSGKEFKCKVNNKALPAPVERTISKPTGQPREPQVYVLAPHRDELSKNKVSVTCLVKDFYPTDIDIEWKSNGQPEPETKYSTTPAQLDSDGSYFLYSKLTVETNRWQQGTTFTCAVWHEALHNHYTEKSVSKSPGK
B10: equine IgG4 M428R (antibody, part only; not given: variable domains, not shown: another chain or arm of the molecule)
constant: ASTTAPKVFPLASHSAATSGSTVALGCLVSSYFPEPVTVSWNSGALTSGVHTFPSVLQSSGLYSLSSMVTVPASSLKSQTYICNVAHPASSTKVDKKIVIKECNGGCPAECLQVGPSVFIFPPKPKDVLMISRTPTVTCVVVDVGHDFPDVQFNWYVDGVETHTATTEPKQEQFNSTYRVVSVLPIQHKDWLSGKEFKCKVNNKALPAPVERTISKPTGQPREPQVYVLAPHRDELSKNKVSVTCLVKDFYPTDIDIEWKSNGQPEPETKYSTTPAQLDSDGSYFLYSKLTVETNRWQQGTTFTCAVRHEALHNHYTEKSVSKSPGK
B11: equine IgG4 M428G (antibody, part only; not given: variable domains, not shown: another chain or arm of the molecule)
constant: ASTTAPKVFPLASHSAATSGSTVALGCLVSSYFPEPVTVSWNSGALTSGVHTFPSVLQSSGLYSLSSMVTVPASSLKSQTYICNVAHPASSTKVDKKIVIKECNGGCPAECLQVGPSVFIFPPKPKDVLMISRTPTVTCVVVDVGHDFPDVQFNWYVDGVETHTATTEPKQEQFNSTYRVVSVLPIQHKDWLSGKEFKCKVNNKALPAPVERTISKPTGQPREPQVYVLAPHRDELSKNKVSVTCLVKDFYPTDIDIEWKSNGQPEPETKYSTTPAQLDSDGSYFLYSKLTVETNRWQQGTTFTCAVGHEALHNHYTEKSVSKSPGK
B12: equine IgG4 M428S (antibody, part only; not given: variable domains, not shown: another chain or arm of the molecule)
constant: ASTTAPKVFPLASHSAATSGSTVALGCLVSSYFPEPVTVSWNSGALTSGVHTFPSVLQSSGLYSLSSMVTVPASSLKSQTYICNVAHPASSTKVDKKIVIKECNGGCPAECLQVGPSVFIFPPKPKDVLMISRTPTVTCVVVDVGHDFPDVQFNWYVDGVETHTATTEPKQEQFNSTYRVVSVLPIQHKDWLSGKEFKCKVNNKALPAPVERTISKPTGQPREPQVYVLAPHRDELSKNKVSVTCLVKDFYPTDIDIEWKSNGQPEPETKYSTTPAQLDSDGSYFLYSKLTVETNRWQQGTTFTCAVSHEALHNHYTEKSVSKSPGK
B13: equine IgG4 M428L (antibody, part only; not given: Variable domains, not shown: another chain or arm of the molecule)
constant: ASTTAPKVFPLASHSAATSGSTVALGCLVSSYFPEPVTVSWNSGALTSGVHTFPSVLQSSGLYSLSSMVTVPASSLKSQTYICNVAHPASSTKVDKKIVIKECNGGCPAECLQVGPSVFIFPPKPKDVLMISRTPTVTCVVVDVGHDFPDVQFNWYVDGVETHTATTEPKQEQFNSTYRVVSVLPIQHKDWLSGKEFKCKVNNKALPAPVERTISKPTGQPREPQVYVLAPHRDELSKNKVSVTCLVKDFYPTDIDIEWKSNGQPEPETKYSTTPAQLDSDGSYFLYSKLTVETNRWQQGTTFTCAVLHEALHNHYTEKSVSKSPGK
B14: equine IgG4 M428K (antibody, part only; not given: variable domains, not shown: another chain or arm of the molecule)
constant: ASTTAPKVFPLASHSAATSGSTVALGCLVSSYFPEPVTVSWNSGALTSGVHTFPSVLQSSGLYSLSSMVTVPASSLKSQTYICNVAHPASSTKVDKKIVIKECNGGCPAECLQVGPSVFIFPPKPKDVLMISRTPTVTCVVVDVGHDFPDVQFNWYVDGVETHTATTEPKQEQFNSTYRVVSVLPIQHKDWLSGKEFKCKVNNKALPAPVERTISKPTGQPREPQVYVLAPHRDELSKNKVSVTCLVKDFYPTDIDIEWKSNGQPEPETKYSTTPAQLDSDGSYFLYSKLTVETNRWQQGTTFTCAVKHEALHNHYTEKSVSKSPGK
B15: equine IgG4 M428F (antibody, part only; not given: variable domains, not shown: another chain or arm of the molecule)
constant: ASTTAPKVFPLASHSAATSGSTVALGCLVSSYFPEPVTVSWNSGALTSGVHTFPSVLQSSGLYSLSSMVTVPASSLKSQTYICNVAHPASSTKVDKKIVIKECNGGCPAECLQVGPSVFIFPPKPKDVLMISRTPTVTCVVVDVGHDFPDVQFNWYVDGVETHTATTEPKQEQFNSTYRVVSVLPIQHKDWLSGKEFKCKVNNKALPAPVERTISKPTGQPREPQVYVLAPHRDELSKNKVSVTCLVKDFYPTDIDIEWKSNGQPEPETKYSTTPAQLDSDGSYFLYSKLTVETNRWQQGTTFTCAVFHEALHNHYTEKSVSKSPGK
B16: equine IgG1 T286M (antibody, part only; not given: variable domains, not shown: another chain or arm of the molecule)
constant: ASTTAPKVFALAPGCGTTSDSTVALGCLVSGYFPEPVKVSWNSGSLTSGVHTFPSVLQSSGFYSLSSMVTVPASTWTSETYICNVVHAASNFKVDKRIEPIPDNHQKVCDMSKCPKCPAPELLGGPSVFIFPPNPKDTLMITRTPEVTCVVVDVSQENPDVKFNWYMDGVEVRMATTRPKEEQFNSTYRVVSVLRIQHQDWLSGKEFKCKVNNQALPQPIERTITKTKGRSQEPQVYVLAPHPDELSKSKVSVTCLVKDFYPPEINIEWQSNGQPELETKYSTTQAQQDSDGSYFLYSKLSVDRNRWQQGTTFTCGVMHEALHNHYTQKNVSKNPGK

Biological target: equine FcRn (large alpha subunit p51) / equine beta-2-microglobulin complex, biotinylated (equine) (UniProt P30441)
Sequence of UniProt P30441 (P30441 21-118, one chain of several): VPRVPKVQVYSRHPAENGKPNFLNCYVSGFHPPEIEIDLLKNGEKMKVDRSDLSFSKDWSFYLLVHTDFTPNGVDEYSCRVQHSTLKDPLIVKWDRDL
Assay: SPR (Biacore), pH 6

B1 and B2 are within 1.5-fold of each other in Kd: 40.8 nM for the first, 49.5 nM for the second.

First: B3
Second: B4
The Kd of the first is 2.6-fold lower: 29.4 nM for the first, 75.2 nM for the second. The first binds more tightly here.

Going from B5 to B6, the Kd falls from 71.8 nM to 30 nM (2.4-fold).

Compared with B7, B8 is 290-fold lower in Kd: 13000 nM for the first, 44.3 nM for the second.

Compared with B9, B10 is 3-fold higher in Kd: 31 nM for the first, 93.1 nM for the second.

B11 and B12 are within 1.5-fold of each other in Kd: 31.5 nM for the first, 40.6 nM for the second.

Going from B13 to B14, the Kd rises from 17.4 nM to 46.2 nM (2.7-fold). The first binds more tightly here.

Compared with B15, B16 is 1.6-fold lower in Kd: 25.4 nM for the first, 15.6 nM for the second. The second binds more tightly here.
